# Measured values as given in patent US20040265906A1.
# Columns and labels:
# Experiment in all cases: cell-based or functional assay
# [1] = target: H3 peptide (first 30 amino acids of H3) of the H3 methylation indicator, methylated by G9a
# [2] = target: H4 peptide of the H4 acetylation indicator, acetylated by CBP
# [3] = target: H3 peptide segment (first 30 amino acids of H3) of the phosphorylation indicator, phosphorylated by Msk-1
substance,measurement,setting,value
chromodomain of HP1 in the H3 methylation indicator,YFP/CFP emission ratio increase (FRET) on in vitro methylation by G9a + SAM,[1],20%
bromodomain of the Drosophila transcription factor TAF250 in the H4 acetylation reporter,YFP/CFP emission ratio increase (FRET) on in vitro acetylation by CBP + acetyl-CoA,[2],11%
14-3-3 domain of the histone 3 phosphorylation indicator,YFP/CFP emission ratio increase (FRET) on in vitro phosphorylation by Msk-1,[3],25%
